These results are taken from paper PMC3099712.

The target in test [1] is GFP-tagged mouse IGFLR1 on HEK293T cells (mouse). The test can be described thus: radioligand binding.
In test [2] the target is GFP-tagged human IGFLR1 on HEK293T cells (human). The test can be described thus: radioligand binding.

Chain of FLAG-mIGFL (mouse insulin growth factor-like protein) (Q6B9Z0 24-140): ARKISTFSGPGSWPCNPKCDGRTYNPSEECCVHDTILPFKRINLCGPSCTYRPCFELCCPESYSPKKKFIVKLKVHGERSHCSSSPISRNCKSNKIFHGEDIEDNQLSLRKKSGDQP
Chain of FLAG-IGFL1 (human insulin growth factor-like family member 1) (Q6UW32 24-110): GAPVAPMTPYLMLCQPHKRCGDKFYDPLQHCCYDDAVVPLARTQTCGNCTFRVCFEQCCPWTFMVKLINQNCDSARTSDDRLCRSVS

In test [1], “FLAG-mIGFL (mouse insulin growth factor-like protein) (from UniProt Q6B9Z0 24-140) (ligand)” yielded a Kd of 0.73 nM.

Regarding “FLAG-IGFL1 (human insulin growth factor-like family member 1) (from UniProt Q6UW32 24-110) (ligand)”, the Kd in test [2] worked out at 0.31 nM.

A word on the Kd: it is the free concentration of one partner at which half of the binding sites on the other are occupied at equilibrium, for simple one-to-one binding.
